The source of these data is PMC9287719 (2022).

Like-named read-outs stand apart in the source and are kept apart here.

Assay [1] has as its target T1, Recombinant FcγRIIa (H131) with C-terminus Biotin (human, UniProt P12318 34-217, C-terminus Biotin).
T1 chain: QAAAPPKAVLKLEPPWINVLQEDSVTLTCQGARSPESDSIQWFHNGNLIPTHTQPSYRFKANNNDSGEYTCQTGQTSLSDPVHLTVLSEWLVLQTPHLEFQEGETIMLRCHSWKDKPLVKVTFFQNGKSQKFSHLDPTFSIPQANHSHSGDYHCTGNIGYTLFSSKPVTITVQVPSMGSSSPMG

Assay [2] addresses T2, Recombinant FcγRIIa (R131) with C-terminus Biotin (human, UniProt P12318, C-terminus Biotin).
T2 chain: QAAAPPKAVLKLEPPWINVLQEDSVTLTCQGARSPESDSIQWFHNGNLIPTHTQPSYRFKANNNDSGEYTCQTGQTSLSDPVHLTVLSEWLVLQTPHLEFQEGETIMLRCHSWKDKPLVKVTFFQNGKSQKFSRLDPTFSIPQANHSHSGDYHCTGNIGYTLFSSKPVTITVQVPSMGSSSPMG

Assay [3] deals with T3, Recombinant FcγRIIIa (V158) with C-terminus Biotin (human, UniProt P08637, C-terminus Biotin).
In assay [4] the target is T4, Recombinant FcγRI with C-terminus Biotin (human, UniProt P12314 16-292, C-terminus Biotin).
T4 chain: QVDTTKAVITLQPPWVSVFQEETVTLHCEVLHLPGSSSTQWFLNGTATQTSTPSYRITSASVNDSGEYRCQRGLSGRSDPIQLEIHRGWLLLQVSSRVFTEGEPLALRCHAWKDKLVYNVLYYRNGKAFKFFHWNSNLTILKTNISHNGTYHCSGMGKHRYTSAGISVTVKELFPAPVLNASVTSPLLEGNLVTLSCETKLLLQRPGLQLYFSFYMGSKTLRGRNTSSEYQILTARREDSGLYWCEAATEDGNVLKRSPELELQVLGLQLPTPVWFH

The target in assay [5] is T3, Recombinant FcγRIIIa (V158) with …. This is another data set of the same source.
Assay [6] deals with T1, Recombinant FcγRIIa (H131) with ….
The target of assay [7] is T2, Recombinant FcγRIIa (R131) with ….
For assay [8], the target named is T5, Recombinant FcγRIIb with C-terminus Biotin (human, UniProt P31994 43-217, C-terminus Biotin).
T5 chain: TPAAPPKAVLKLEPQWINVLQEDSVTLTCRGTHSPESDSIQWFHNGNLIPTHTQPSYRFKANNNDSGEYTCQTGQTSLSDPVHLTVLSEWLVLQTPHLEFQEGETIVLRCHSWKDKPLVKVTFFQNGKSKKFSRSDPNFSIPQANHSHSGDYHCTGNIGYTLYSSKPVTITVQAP

In assay [9] the target is Recombinant FcγRIIIa (F158) with C-terminus Biotin (human, UniProt P08637 17-208, C-terminus Biotin).
The target of assay [10] is T4, Recombinant FcγRI with C-terminus Biotin.

T3 sequence (P08637 17-208 F176V): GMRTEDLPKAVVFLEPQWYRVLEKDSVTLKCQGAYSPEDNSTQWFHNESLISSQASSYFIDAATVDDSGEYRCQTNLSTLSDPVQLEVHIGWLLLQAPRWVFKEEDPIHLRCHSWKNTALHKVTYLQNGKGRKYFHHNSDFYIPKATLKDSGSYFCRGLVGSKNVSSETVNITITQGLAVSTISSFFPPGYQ
Chain of Recombinant FcγRIIIa (F158) with C-terminus Biotin (P08637 17-208): as the sequence (P08637 17-208 F176V) above, with V160F counted along it

B1: Panitumumab (antibody)
chain 1: QVQLQESGPGLVKPSETLSLTCTVSGGSVSSGDYYWTWIRQSPGKGLEWIGHIYYSGNTNYNPSLKSRLTISIDTSKTQFSLKLSSVTAADTAIYYCVRDRVTGAFDIWGQGTMVTVSS
chain 2: DIQMTQSPSSLSASVGDRVTITCQASQDISNYLNWYQQKPGKAPKLLIYDASNLETGVPSRFSGSGSGTDFTFTISSLQPEDIATYFCQHFDHLPLAFGGGTKVEIK
B1: the half-inhibitory concentration (IC50) was 137 nM in [1] and 1570 nM in assay [2].

B2: Pembrolizumab (antibody)
chain 1: QVQLVQSGVEVKKPGASVKVSCKASGYTFTNYYMYWVRQAPGQGLEWMGGINPSNGGTNFNEKFKNRVTLTTDSSTTTAYMELKSLQFDDTAVYYCARRDYRFDMGFDYWGQGTTVTVSS
chain 2: EIVLTQSPATLSLSPGERATLSCRASKGVSTSGYSYLHWYQQKPGQAPRLLIYLASYLESGVPARFSGSGSGTDFTLTISSLEPEDFAVYYCQHSRDLPLTFGGGTKVEIK
Turning to B2, the IC50 in [3] stood at 1960 nM; in assay [4] it was 0.44 nM.

B3: Infliximab (antibody)
chain 1: EVKLEESGGGLVQPGGSMKLSCVASGFIFSNHWMNWVRQSPEKGLEWVAEIRSKSINSATHYAESVKGRFTISRDDSKSAVYLQMTDLRTEDTGVYYCSRNYYGSTYDYWGQGTTLTVSS
chain 2: DILLTQSPAILSVSPGERVSFSCRASQFVGSSIHWYQQRTNGSPRLLIKYASESMSGIPSRFSGSGSGTDFTLSINTVESEDIADYYCQQSHSWPFTFGSGTNLEVK
For B3, the IC50 worked out at 15.5 nM in assay [5]; 244 nM in assay [6]; 394 nM in [7]; 2900 nM in [8]; 101 nM in assay [9]; 0.06 nM in assay [10].

In general, IC50 refers to the concentration needed to halve the response being measured.
